Assay results reported in the supplement of paper PMC10065799, “High-throughput profiling of sequence recognition by tyrosine kinases and SH2 domains using bacterial peptide display” (eLife, 2023).

Legend:
AncSZ = experiment: phosphorylation enrichment, bacterial display (enrichment ratio); higher = better substrate or ligand; peptides without Tyr show the background
EPHB1 = EPHB1 (UniProt P54762); experiment: as above
EPHB2 = EPHB2 (UniProt P29323); experiment: as above
FGFR1 = FGFR1 (UniProt P11362); experiment: as above
FGFR3 = FGFR3 (UniProt P22607); experiment: as above
Fer (mouse) = experiment: as above
Fes = Fes (UniProt P07332); experiment: as above
Fyn = Fyn (UniProt P06241); experiment: as above
Hck = Hck (UniProt P08631); experiment: as above
Jak2 = Jak2 (UniProt O60674); experiment: as above
MERTK = MERTK (UniProt Q12866); experiment: as above
c-Abl (mouse) = experiment: as above
c-Src = experiment: as above
Grb2 SH2 = Grb2 SH2 (UniProt P62993); experiment: SH2 binding enrichment of the phosphorylated peptide, bacterial display (enrichment ratio); higher = better substrate or ligand; peptides without Tyr show the background
SHP2-C SH2 = experiment: as above
c-Src SH2 = experiment: as above
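For SH2 binding enrichment of the phosphorylated peptide, bacterial display in this document: peptide library displayed on the E. coli surface as eCPX fusions, selected cells deep-sequenced, score is each peptide's frequency after selection divided by its frequency in the input.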
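For phosphorylation enrichment, bacterial display in this document: 11-residue human phosphosite peptides and single-mutation variants displayed on the E. coli surface, counted by deep sequencing, each peptide's frequency after selection divided by its frequency in the unselected input library; frequency after pTyr selection over input frequency; kinase dosed for 20-30% of maximal phosphorylation in three min.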

Sequence of EPHB2 (P29323 whole entry, looked up): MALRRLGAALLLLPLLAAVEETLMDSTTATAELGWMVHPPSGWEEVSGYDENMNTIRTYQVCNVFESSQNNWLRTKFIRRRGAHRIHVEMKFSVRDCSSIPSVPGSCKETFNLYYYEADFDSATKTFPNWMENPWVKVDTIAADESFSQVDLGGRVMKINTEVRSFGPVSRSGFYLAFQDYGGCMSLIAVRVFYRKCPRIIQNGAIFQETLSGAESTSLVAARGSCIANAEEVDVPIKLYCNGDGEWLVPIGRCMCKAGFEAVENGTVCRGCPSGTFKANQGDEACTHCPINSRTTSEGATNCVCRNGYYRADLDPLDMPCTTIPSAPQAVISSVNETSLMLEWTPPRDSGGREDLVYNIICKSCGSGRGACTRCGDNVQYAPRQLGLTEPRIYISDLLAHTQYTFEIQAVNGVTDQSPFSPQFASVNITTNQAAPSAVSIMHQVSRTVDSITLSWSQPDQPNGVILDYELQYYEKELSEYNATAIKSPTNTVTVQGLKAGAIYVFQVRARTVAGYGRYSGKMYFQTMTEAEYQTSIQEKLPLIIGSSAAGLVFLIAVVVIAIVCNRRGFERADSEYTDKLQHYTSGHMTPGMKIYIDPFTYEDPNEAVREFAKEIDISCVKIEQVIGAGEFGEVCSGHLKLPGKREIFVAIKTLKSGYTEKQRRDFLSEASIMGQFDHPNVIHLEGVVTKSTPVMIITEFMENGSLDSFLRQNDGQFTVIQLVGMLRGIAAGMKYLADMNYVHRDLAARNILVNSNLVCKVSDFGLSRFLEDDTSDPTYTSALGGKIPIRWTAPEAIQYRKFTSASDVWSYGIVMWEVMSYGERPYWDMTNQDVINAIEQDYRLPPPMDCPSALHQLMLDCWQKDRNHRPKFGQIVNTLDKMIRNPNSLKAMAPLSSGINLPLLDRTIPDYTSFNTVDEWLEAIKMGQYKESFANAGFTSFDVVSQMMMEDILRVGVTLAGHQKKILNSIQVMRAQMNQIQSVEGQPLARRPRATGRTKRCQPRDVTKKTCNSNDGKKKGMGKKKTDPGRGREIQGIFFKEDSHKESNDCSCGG
Sequence of FGFR1 (P11362 whole entry, looked up): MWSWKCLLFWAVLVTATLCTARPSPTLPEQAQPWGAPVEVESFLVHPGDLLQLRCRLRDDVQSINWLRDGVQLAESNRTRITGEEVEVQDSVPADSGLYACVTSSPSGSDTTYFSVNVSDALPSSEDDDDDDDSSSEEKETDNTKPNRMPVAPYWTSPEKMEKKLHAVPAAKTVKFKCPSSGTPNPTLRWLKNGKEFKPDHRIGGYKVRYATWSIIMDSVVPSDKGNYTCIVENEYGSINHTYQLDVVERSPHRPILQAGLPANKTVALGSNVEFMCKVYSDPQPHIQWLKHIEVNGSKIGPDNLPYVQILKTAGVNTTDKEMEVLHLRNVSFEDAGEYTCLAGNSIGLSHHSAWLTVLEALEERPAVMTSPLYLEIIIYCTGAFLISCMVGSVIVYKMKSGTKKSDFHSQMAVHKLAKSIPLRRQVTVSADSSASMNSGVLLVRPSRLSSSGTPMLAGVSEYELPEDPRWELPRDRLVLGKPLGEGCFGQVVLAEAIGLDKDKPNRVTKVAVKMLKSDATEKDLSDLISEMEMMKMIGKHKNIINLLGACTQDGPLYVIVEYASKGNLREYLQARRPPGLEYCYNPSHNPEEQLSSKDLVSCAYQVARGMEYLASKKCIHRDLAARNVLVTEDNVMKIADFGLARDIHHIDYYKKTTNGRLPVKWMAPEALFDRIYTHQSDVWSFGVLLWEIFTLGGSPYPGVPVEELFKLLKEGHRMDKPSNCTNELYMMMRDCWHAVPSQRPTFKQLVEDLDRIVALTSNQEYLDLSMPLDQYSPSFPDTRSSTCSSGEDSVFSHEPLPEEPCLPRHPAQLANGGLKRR
Sequence of Hck (P08631 whole entry, looked up): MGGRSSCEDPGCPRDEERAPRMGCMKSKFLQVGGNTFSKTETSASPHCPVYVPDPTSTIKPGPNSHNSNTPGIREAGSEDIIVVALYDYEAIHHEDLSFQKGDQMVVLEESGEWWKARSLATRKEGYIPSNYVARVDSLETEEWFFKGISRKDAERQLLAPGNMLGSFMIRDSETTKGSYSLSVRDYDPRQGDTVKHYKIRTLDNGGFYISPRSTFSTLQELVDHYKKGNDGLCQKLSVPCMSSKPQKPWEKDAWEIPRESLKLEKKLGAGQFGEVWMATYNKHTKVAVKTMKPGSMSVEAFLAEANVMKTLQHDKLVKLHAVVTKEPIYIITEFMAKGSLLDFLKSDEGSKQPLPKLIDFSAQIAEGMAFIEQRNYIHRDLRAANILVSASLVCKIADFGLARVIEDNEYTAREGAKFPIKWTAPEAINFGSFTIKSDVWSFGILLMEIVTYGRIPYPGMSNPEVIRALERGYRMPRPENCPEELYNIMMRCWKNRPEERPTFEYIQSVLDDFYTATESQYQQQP
Sequence of Fes (P07332 whole entry, looked up): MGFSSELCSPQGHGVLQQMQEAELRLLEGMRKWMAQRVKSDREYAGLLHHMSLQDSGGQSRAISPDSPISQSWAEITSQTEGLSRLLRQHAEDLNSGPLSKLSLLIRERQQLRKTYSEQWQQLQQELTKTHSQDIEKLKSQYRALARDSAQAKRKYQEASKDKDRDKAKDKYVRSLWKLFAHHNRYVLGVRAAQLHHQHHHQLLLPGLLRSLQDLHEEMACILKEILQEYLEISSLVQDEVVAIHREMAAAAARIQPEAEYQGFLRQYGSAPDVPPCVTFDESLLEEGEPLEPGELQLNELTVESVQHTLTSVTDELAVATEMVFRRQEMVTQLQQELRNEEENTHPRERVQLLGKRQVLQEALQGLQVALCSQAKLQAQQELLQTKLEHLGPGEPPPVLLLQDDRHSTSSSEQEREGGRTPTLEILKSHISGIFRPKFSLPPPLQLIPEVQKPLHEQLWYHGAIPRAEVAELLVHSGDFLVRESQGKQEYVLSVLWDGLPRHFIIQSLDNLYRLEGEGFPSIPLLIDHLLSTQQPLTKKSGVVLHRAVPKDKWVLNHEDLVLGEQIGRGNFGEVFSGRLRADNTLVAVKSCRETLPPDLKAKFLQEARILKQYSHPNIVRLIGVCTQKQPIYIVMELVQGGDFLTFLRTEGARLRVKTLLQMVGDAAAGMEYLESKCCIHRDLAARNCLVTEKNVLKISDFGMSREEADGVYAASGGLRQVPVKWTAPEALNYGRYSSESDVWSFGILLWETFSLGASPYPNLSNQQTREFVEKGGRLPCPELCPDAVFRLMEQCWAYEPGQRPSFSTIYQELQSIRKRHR
Sequence of FGFR3 (P22607 whole entry, looked up): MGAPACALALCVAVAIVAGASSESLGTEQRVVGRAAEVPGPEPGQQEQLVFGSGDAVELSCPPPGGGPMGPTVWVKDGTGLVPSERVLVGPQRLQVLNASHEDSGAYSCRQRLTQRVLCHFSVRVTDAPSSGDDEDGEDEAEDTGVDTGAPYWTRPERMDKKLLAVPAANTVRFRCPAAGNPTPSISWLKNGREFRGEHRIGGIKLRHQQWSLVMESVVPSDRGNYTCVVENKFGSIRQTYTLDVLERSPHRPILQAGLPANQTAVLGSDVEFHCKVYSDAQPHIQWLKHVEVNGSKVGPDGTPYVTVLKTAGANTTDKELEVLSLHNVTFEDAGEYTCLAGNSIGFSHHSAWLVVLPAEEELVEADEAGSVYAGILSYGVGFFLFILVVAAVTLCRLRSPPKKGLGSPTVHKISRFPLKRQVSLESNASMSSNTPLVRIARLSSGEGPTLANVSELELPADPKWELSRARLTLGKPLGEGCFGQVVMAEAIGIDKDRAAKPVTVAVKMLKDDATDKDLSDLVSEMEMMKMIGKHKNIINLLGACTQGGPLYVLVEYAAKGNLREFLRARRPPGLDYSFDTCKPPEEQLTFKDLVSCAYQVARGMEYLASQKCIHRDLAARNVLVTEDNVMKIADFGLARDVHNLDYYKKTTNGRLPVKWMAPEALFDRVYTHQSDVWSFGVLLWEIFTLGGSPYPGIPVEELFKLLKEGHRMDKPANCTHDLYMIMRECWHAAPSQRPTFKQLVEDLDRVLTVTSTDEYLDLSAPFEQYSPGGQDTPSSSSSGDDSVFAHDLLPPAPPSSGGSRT
Sequence of Fyn (P06241 whole entry, looked up): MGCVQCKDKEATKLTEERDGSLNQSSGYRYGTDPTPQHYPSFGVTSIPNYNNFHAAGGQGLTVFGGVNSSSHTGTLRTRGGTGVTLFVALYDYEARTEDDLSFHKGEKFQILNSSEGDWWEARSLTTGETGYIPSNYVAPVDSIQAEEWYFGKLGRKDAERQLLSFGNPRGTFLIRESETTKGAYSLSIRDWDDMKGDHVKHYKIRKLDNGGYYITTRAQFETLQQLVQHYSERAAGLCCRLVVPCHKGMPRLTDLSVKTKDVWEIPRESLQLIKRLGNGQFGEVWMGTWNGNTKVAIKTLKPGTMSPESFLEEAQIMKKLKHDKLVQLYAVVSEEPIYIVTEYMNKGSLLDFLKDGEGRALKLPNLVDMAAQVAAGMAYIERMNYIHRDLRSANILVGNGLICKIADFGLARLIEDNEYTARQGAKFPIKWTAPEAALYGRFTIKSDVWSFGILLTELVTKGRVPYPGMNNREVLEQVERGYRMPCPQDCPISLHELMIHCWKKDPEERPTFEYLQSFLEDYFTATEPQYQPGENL

Row | Sequence | SH2 binding enrichment (Grb2 SH2) | SH2 binding enrichment (SHP2-C SH2) | SH2 binding enrichment (c-Src SH2) | phosphorylation enrichment (AncSZ) | phosphorylation enrichment (EPHB1) | phosphorylation enrichment (EPHB2) | phosphorylation enrichment (FGFR1) | phosphorylation enrichment (FGFR3) | phosphorylation enrichment (Fer (mouse)) | phosphorylation enrichment (Fes) | phosphorylation enrichment (Fyn) | phosphorylation enrichment (Hck) | phosphorylation enrichment (Jak2) | phosphorylation enrichment (MERTK) | phosphorylation enrichment (c-Abl (mouse)) | phosphorylation enrichment (c-Src)
1 | EAVSIYQFYGQ [CBLC_Y402_H405Y] | 0.821 | 0.857 | 0.574 | 2.11 | 10.1 | 11.6 | 1.6 | 1.77 | 9.22 | 1.38 | 9.16 | 7.5 | 1.22 | 9.05 | 4.8 | 7.02
2 | ALLTKYSHSSM [DSCC1_Y374] | 0.76 | 0.488 | 0.406 | 0.651 | 0.442 | 0.643 | 0.45 | 0.587 | 0.56 | 0.737 | 0.578 | 0.485 | 0.542 | 0.436 | 0.727 | 0.528
3 | KNEVLYDEENH [ARFGEF1_Y314_G316E] | 0.664 | 0.789 | 0.636 | 1.25 | 0.568 | 0.618 | 0.591 | 0.671 | 0.5 | 1.4 | 0.537 | 0.547 | 1.3 | 0.401 | 0.997 | 0.582
4 | IQKKFYRAILE [CHD7_Y1218_YF] | 0.769 | 0.699 | 0.685 | 0.523 | 0.396 | 0.275 | 0.37 | 0.46 | 0.398 | 0.727 | 0.344 | 0.332 | 0.636 | 0.409 | 0.51 | 0.414
5 | AFLLLYFNDTH [BMP15_Y235] | 1.01 | 0.79 | 0.566 | 1.15 | 0.761 | 0.496 | 0.49 | 0.915 | 0.525 | 1.41 | 0.445 | 0.482 | 1.26 | 0.43 | 1.16 | 0.486
6 | MPIPMYDGSQA [CARMIL1_Y637_A639G] | 0.746 | 0.53 | 0.452 | 0.623 | 1.1 | 0.634 | 0.434 | 0.532 | 0.402 | 0.777 | 0.52 | 0.53 | 0.963 | 0.447 | 0.639 | 0.44
7 | QKPLDYFRVNL [GALE_Y104_YF] | 1.05 | 0.68 | 0.747 | 1.41 | 1 | 0.636 | 7.69 | 4.41 | 0.643 | 1.59 | 0.58 | 0.647 | 8.52 | 0.647 | 0.905 | 0.711
8 | TLQVMYGCDVG [HLA-B_Y123_S121V] | 0.941 | 0.883 | 0.515 | 1.1 | 0.564 | 0.56 | 0.596 | 0.862 | 0.509 | 1.23 | 0.508 | 0.593 | 1.1 | 0.56 | 0.849 | 0.589
9 | GCAGKYIAMVM [CYP19A1_Y441] | 0.875 | 0.56 | 0.603 | 1 | 0.548 | 0.474 | 0.44 | 0.702 | 0.513 | 1.07 | 0.461 | 0.439 | 0.889 | 0.569 | 0.712 | 0.414
10 | INSLKYAFNVS [EIF2B5_Y583_I587V_YF] | 0.705 | 0.352 | 0.379 | 0.77 | 0.443 | 0.43 | 0.44 | 0.584 | 0.452 | 0.85 | 0.478 | 0.51 | 0.771 | 0.447 | 0.593 | 0.464
11 | TIQMMYGCDVG [HLA-A_Y123_I121M] | 0.845 | 0.575 | 0.414 | 1.22 | 0.718 | 0.555 | 0.561 | 0.987 | 0.532 | 1.38 | 0.525 | 0.501 | 1.31 | 0.408 | 0.822 | 0.513
12 | TTPAVYARVAK [CTRB2_Y246] | 0.897 | 2.3 | 2.12 | 0.49 | 0.594 | 0.505 | 0.436 | 0.436 | 0.383 | 0.583 | 1.28 | 2.77 | 0.464 | 0.529 | 1.04 | 2.23
13 | QFPDIYAREEV [CRX_Y67_V66I_YF] | 1.02 | 0.9 | 0.525 | 1.82 | 0.628 | 1.21 | 1.15 | 1.26 | 0.707 | 1.91 | 0.959 | 1.56 | 2.02 | 0.773 | 0.99 | 1.23
14 | SDFFAYSPVQE [H6PD_Y449_R453Q_YF] | 0.704 | 0.639 | 1.83 | 1.44 | 0.783 | 0.686 | 0.577 | 0.807 | 1.13 | 1.32 | 0.489 | 0.647 | 1.36 | 0.645 | 0.922 | 0.611
15 | AAVDNYCRHNY [HLA-DRB1_Y107_T106N] | 0.765 | 0.72 | 0.631 | 0.621 | 0.519 | 0.669 | 0.521 | 0.649 | 0.427 | 0.808 | 0.388 | 0.461 | 0.612 | 0.46 | 0.502 | 0.376
16 | FSKTQYNQVPS [CXADR_Y318_YF] | 0.962 | 1.03 | 0.56 | 0.801 | 0.424 | 0.858 | 0.577 | 0.556 | 0.551 | 0.85 | 0.507 | 0.598 | 1.15 | 0.697 | 0.892 | 0.613

Now from value to sequence, other results behind:

Row | SH2 binding enrichment (Grb2 SH2) | SH2 binding enrichment (SHP2-C SH2) | SH2 binding enrichment (c-Src SH2) | Sequence | phosphorylation enrichment (AncSZ) | phosphorylation enrichment (EPHB1) | phosphorylation enrichment (EPHB2) | phosphorylation enrichment (FGFR1) | phosphorylation enrichment (FGFR3) | phosphorylation enrichment (Fer (mouse)) | phosphorylation enrichment (Fes) | phosphorylation enrichment (Fyn) | phosphorylation enrichment (Hck) | phosphorylation enrichment (Jak2) | phosphorylation enrichment (MERTK) | phosphorylation enrichment (c-Abl (mouse)) | phosphorylation enrichment (c-Src)
17 | 0.906 | 0.628 | 2.16 | YEEDSYVTRSQ [RET_Y905_K907T] | 1.21 | 0.59 | 0.565 | 0.604 | 0.964 | 0.548 | 1.12 | 0.499 | 0.543 | 1.04 | 0.468 | 0.69 | 0.496
18 | 0.75 | 0.808 | 0.544 | EVVGRYSVHYA [MLH1_Y183_N187Y] | 0.751 | 0.475 | 0.5 | 0.462 | 0.588 | 0.416 | 1.03 | 0.392 | 0.38 | 0.823 | 0.46 | 0.649 | 0.404
19 | 0.98 | 0.754 | 0.524 | HFGCVYHGTLL [MET_Y1093] | 1.8 | 1.21 | 0.991 | 1.04 | 1.19 | 0.967 | 1.67 | 1.08 | 0.9 | 1.28 | 0.637 | 1.33 | 4.11
20 | 1.16 | 1.18 | 0.751 | GSSKIYFLHPD [TLR5_Y108] | 0.849 | 0.529 | 0.624 | 2.48 | 1.85 | 0.403 | 0.844 | 1.84 | 1.21 | 0.714 | 2.89 | 0.642 | 1.83
21 | 1.23 | 5.25 | 0.896 | NFDRVYIYHLR [MYOF_Y1137] | 1.19 | 0.593 | 0.618 | 0.575 | 0.755 | 0.612 | 1.23 | 0.858 | 0.782 | 1.03 | 0.528 | 0.718 | 1.01
22 | 0.766 | 0.713 | 0.98 | MAYDRYVAICS [OR8D4_Y123_C120Y] | 1.01 | 1.28 | 2.12 | 0.603 | 0.753 | 0.547 | 1.01 | 0.486 | 0.745 | 1.15 | 0.77 | 1.03 | 0.762
23 | 0.656 | 1.58 | 8.56 | AIGYEYSEINI [SIGLEC12_Y588] | 1.44 | 0.797 | 0.562 | 5.67 | 3.56 | 6.47 | 0.999 | 1.11 | 2.3 | 0.987 | 0.492 | 0.9 | 2.03
24 | 0.841 | 0.652 | 0.583 | LKRIAYFLCLR [LGI1_Y21_L26R] | 0.997 | 0.372 | 0.413 | 0.365 | 0.601 | 0.435 | 1.06 | 0.399 | 0.37 | 0.949 | 0.359 | 0.708 | 0.341
25 | 0.788 | 0.525 | 0.449 | ADKAAYLQSMN [MYH2_Y389_L393M] | 0.499 | 0.545 | 0.419 | 0.47 | 0.654 | 0.411 | 0.761 | 0.415 | 0.436 | 0.609 | 0.366 | 0.591 | 0.459
26 | 1.5 | 1.39 | 1.36 | CTTIHYNYRCN [TP53_Y234_M237R] | 0.797 | 0.594 | 0.54 | 0.502 | 0.713 | 0.455 | 1.03 | 0.498 | 0.497 | 0.832 | 0.465 | 0.726 | 0.522
27 | 1.29 | 0.674 | 1.18 | FQLENYCNGGG [INS_Y108_YF] | 1.34 | 0.677 | 0.458 | 0.601 | 0.72 | 0.364 | 1.41 | 0.878 | 0.619 | 2.44 | 0.45 | 1.76 | 0.736
28 | 0.696 | 0.769 | 0.51 | GRDVIYKGFED [NFU1_Y194_G190R] | 0.77 | 0.528 | 0.401 | 0.468 | 0.539 | 0.426 | 1 | 2.94 | 0.96 | 0.767 | 0.391 | 0.561 | 1.97
29 | 1.16 | 1.01 | 0.696 | EQKKYYNAVKK [SCN5A_Y1495_M1498V] | 0.529 | 0.341 | 0.34 | 0.425 | 0.466 | 0.414 | 0.63 | 0.328 | 0.352 | 0.634 | 0.563 | 0.511 | 0.476
30 | 0.754 | 0.651 | 1.79 | HITQVYGFYDE [PPP2CA_Y127_Q122H] | 2.11 | 1.31 | 1.85 | 2.27 | 1.26 | 2.21 | 1.79 | 13.2 | 5.95 | 1.88 | 2.79 | 1.58 | 12.3
31 | 0.978 | 0.907 | 0.677 | FLENFYDLEKD [MMP3_Y42_K45E_YF] | 1.33 | 0.531 | 0.546 | 0.504 | 0.679 | 0.433 | 1.34 | 4.33 | 1.39 | 1.21 | 0.516 | 0.764 | 2.23
32 | 0.772 | 0.73 | 0.586 | PKGTGCIKTEL [STAT1_Y701_Y701C] | 1.05 | 0.774 | 0.54 | 0.558 | 0.759 | 0.726 | 1.27 | 0.443 | 0.689 | 0.808 | 0.74 | 1.04 | 0.457
33 | 0.9 | 0.626 | 0.542 | KLIETYFSKNF [PLP1_Y50_YF] | 0.942 | 0.474 | 0.452 | 0.449 | 0.589 | 0.4 | 0.99 | 0.474 | 0.519 | 0.87 | 0.427 | 0.668 | 0.558
